The source of these data is patent publication JP2012050437A.

In the experiment the target is soluble Aβ1-42 (125I-labelled) (human) (UniProt P05067). The experiment is described as follows: capture radioimmunoassay, 50,000 CPM 125I-Aβ1-42, antibody at 10 µg/ml.

Regarding “murine monoclonal antibody 10D5 (isotype IgG1)”, the percent of radioactive counts bound at 10 µg/ml worked out at 2%.
